The test has as its target T1, N-terminal HA-tagged VDAC2 (murine, UniProt Q60930 1-295).
T1 construct: also called HA-VDAC2; hemagglutinin (HA)-tagged version of VDAC2; not shown: N-terminal HA tag
T1 sequence (looked up): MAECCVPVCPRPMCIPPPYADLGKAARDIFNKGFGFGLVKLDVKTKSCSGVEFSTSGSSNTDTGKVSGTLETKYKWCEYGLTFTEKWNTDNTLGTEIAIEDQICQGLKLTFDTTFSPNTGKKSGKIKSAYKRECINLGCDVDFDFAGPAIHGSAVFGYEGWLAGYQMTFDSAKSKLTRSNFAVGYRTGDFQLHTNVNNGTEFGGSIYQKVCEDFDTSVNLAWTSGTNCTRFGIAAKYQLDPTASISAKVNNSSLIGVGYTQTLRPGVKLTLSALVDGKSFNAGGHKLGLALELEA
Nature of the test: anti-HA immunoprecipitation in 1% CHAPS, anti-BID immunoblot. How it is done:
The activated form of BID, p15 tBID, was first examined in cells expressing only VDAC2 and not the other isoforms, VDAC1 or VDAC3. Mitochondria isolated from vdac1 -/- , vdac3 -/- mouse fibroblasts with or without retroviral transduction of N-terminal HA-tagged VDAC2 were incubated with in vitro transcribed, translated wild-type or mutant tBID (mIII.4, G94E) protein at 30° C. for 30 min, followed by anti-HA immunoprecipitation in 1% CHAPS buffer.

B1: mutant tBID mIII.4 (G94E) (other, UniProt P70444 60-195, looked up)
chain: GSQASRSFNQGRIEPDSESQEEIIHNIARHLAQIEDEMDHNIQPTLVRQLAAQFMNGSLSEEDKRNCLAKALDEVKTAFPRDMENDKAMLIMTMLLAKKVASHAPSLLRDVFHTTVNFINQNLFSYVRNLVRNEMD
notes: domain: p15 tBID; also called m111.4 mutant; m l 11.4
On to B1, for which the binding result is reported as “no binding”.

Values taken from patent publication US20050085420A1, “Method of modulating apoptosis and compositions thereof” (priority 2003, published 2005).
